Literature values as cited in article PMC9458874.

Target: HAB1 (Arabidopsis thaliana) (UniProt Q9CAJ0)
Chain of UniProt Q9CAJ0 (Q9CAJ0 23-511): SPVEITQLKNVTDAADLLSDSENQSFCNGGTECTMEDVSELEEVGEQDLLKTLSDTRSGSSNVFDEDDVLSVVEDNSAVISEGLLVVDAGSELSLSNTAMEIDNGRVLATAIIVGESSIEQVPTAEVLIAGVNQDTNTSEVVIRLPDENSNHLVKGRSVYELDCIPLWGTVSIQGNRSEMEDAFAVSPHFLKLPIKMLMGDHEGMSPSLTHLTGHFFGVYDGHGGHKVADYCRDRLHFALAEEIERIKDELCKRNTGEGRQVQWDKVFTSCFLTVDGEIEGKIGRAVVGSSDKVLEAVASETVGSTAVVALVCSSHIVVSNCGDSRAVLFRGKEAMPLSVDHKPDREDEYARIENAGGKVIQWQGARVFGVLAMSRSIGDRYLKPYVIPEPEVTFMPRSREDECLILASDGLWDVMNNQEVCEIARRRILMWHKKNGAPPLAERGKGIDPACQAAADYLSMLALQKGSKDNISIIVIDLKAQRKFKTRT

Kd: 30 nM
Substance: PYR1 (from UniProt O49686)
